From US20210244857A1, “PEPTIDE-COATED CALCIUM PHOSPHATE PARTICLES” (Cerapedics, Inc., priority 2016, published 2021)
Ends that are not written are not given here.

Tests used:
[1] = P-15 bound to ABM particles after pretreatment, coating and washing (ELISA), effect of osmolarity; assay type: physicochemical, Bovine; conditions: Hepes buffer pH 7.2
Procedure: (§1) ABM particles were incubated in a buffered solution that contained varying amounts of NaCl to modulate the final osmolarity. The ABM particles were incubated in the solutions for 18-24 hours, rinsed a second time in the same buffer, and dried. The pre-treated surface modified ABM particles were then incubated with P-15 dissolved in the same buffer as used during the pre-treatment step to coat the particles with P-15 peptide. Following the P-15 coating step, the ABM particles were washed repeatedly with the corresponding buffer solution. The amount of bound P-15 was determined using an ELISA test method. The different runs represent different preparations of the same ABM source.

[2] = as above; assay type: physicochemical; conditions: Hepes buffer pH 7.2, Porcine Cancellous Run #1
Procedure: as §1

[3] = P-15 bound on final washed ABM particles, effect of pretreatment and freezing/drying technique; assay type: physicochemical
Procedure: Step 1: PRETREATMENT—ABM is pretreated in a Hypertonic (˜460 mM NaCl) HEPES buffer, pH 7.2, at a 10:1 ratio (ml solution to g ABM) for 24 hours. This solution is decanted off after 24 hours. This wash is repeated with fresh solution for 1 hour or until there is no pH change upon exposure to fresh solution. The final wash solution is decanted and the ABM is vacuum dried. The pretreatment step is performed with agitation of some kind (roller, rotation, etc.).
Step 2: COATING—A P-15 coating buffer (concentration depends on final desired P-15 coated on ABM) is made using hypertonic HEPES, pH 7.2. Pretreated ABM is coated using a 2:1 ratio (mL solution to g ABM) for 24 hours. This step is performed statically, with no agitation.
Step 3: WASHING—After the 24 hour coating step, the solution is removed by a rapid vacuum filtration process. The coated ABM is washed 6-12 times in a 10:1 ratio of solution to ABM using hypertonic HEPES buffer, pH 7.2. Vacuum filtration is performed between each wash to remove the solution. After the final wash, the washed ABM is then vacuum dried overnight.
ABM particles are produced as described in step 1 of Example 1, where step 1 further includes freezing and then drying the ABM particles subjected to hypertonic buffer.
Paired samples of pretreated ABM particles were freeze-dried (F/D) by two different methods, and a third sample was simply air dried (without any freezing). One sample was placed on a controlled ambient temperature F/D shelf and a vacuum was immediately pulled to initiate rapid evaporative freezing (FD-EC). The second sample was placed on an ambient F/D shelf and slowly frozen by ramped freezing (˜1-2° C. per minute). Once the sample was frozen the vacuum was initiated; this process is considered standard freeze-drying. The F/D process was used for both (a) the pretreatment step 1 and the washing (post-coating) step 3. The third samples was not frozen; the water was removed from the sample by air-drying at both drying steps. The following table indicates the amount of bound P15 on the final washed product. Table 4 indicates the amount of bound P-15 on the final washed ABM particles.
Paired samples of pretreated ABM particles were F/D by two different methods. One sample was placed on a controlled ambient temperature F/D shelf and a vacuum was immediately pulled to initiate rapid evaporative freezing. The second sample was placed on an uncooled shelf and a vacuum was immediately pulled to initiate evaporative cooling (vacuum oven drying). It should be noted that the rate of cooling is slower for this process due to the shelf temperature and the strength of vacuum. The F/D process was used for both (a) the pretreatment step 1 and the washing (post-coating) step 3. Table 5 indicates the amount of bound P-15 on the final washed ABM particles.
Four paired samples of pretreated ABM particles were F/D by two methods, alternately performed at the two separate drying steps. Two samples were F/D by vacuum oven drying after the pretreatment step and then dried by either the vacuum oven drying process or by FD-EC (placed on a controlled ambient temperature F/D shelf and a vacuum was immediately pulled to initiate rapid evaporative freezing) method after the P-15 coating step. The other two samples were dried by FD-EC after the pretreatment step and then dried by either the vacuum oven drying process or by FD-EC method after the P-15 coating Table 6 table indicates the amount of bound P-15 on the final washed ABM particles.
Paired samples of pretreated ABM particles were F/D by two different methods. One sample was rapidly frozen using a blast-freezer. The frozen sample was placed on a cold F/D shelf and a vacuum was immediately pulled. The second samples was placed on an uncooled shelf and a vacuum was immediately pulled to initiate evaporative cooling. The F/D process was used for both (a) the pretreatment step 1 and the washing (post-coating) step 3. […]

## GTPGPQGIAGQRGVV [P-15, cell adhesion (collagen mimetic) peptide coated onto ABM particles]
[1]; Hypertonic Solution (2.7%saline), Bovine Cancellous Run #1
  P-15 Concentration Bound to ABM Particles: 149 ng-P-15/g-ABM
[1]; Hypertonic Solution (2.7%saline), Bovine Cancellous Run #2
  P-15 Concentration Bound to ABM Particles: 1024 ng-P-15/g-ABM
[1]; Hypertonic Solution (2.7%saline), Bovine Cortical Run #1
  P-15 Concentration Bound to ABM Particles: 153 ng ng-P-15/g-ABM
[1]; Hypertonic Solution (2.7%saline), Bovine Cortical Run #2
  P-15 Concentration Bound to ABM Particles: 105 ng-P-15/g-ABM
[1]; Hypotonic Solution (0% saline), Bovine Cancellous Run #1
  P-15 Concentration Bound to ABM Particles: 68 ng-P-15/g-ABM
[1]; Hypotonic Solution (0% saline), Bovine Cancellous Run #2
  P-15 Concentration Bound to ABM Particles: 651 ng-P-15/g-ABM
[1]; Hypotonic Solution (0% saline), Bovine Cortical Run #1
  P-15 Concentration Bound to ABM Particles: 105 ng ng-P-15/g-ABM
[1]; Hypotonic Solution (0% saline), Bovine Cortical Run #2
  P-15 Concentration Bound to ABM Particles: 64 ng-P-15/g-ABM
[1]; Isotonic Solution (0.9% saline), Bovine Cancellous Run #1
  P-15 Concentration Bound to ABM Particles: 129 ng-P-15/g-ABM
[1]; Isotonic Solution (0.9% saline), Bovine Cancellous Run #2
  P-15 Concentration Bound to ABM Particles: 611 ng-P-15/g-ABM
[1]; Isotonic Solution (0.9% saline), Bovine Cortical Run #1
  P-15 Concentration Bound to ABM Particles: 116 ng ng-P-15/g-ABM
[1]; Isotonic Solution (0.9% saline), Bovine Cortical Run #2
  P-15 Concentration Bound to ABM Particles: 66 ng-P-15/g-ABM
[2]; Hypertonic Solution (2.7%saline)
  P-15 Concentration Bound to ABM Particles: 376 ng ng-P-15/g-ABM
[2]; Hypotonic Solution (0% saline)
  P-15 Concentration Bound to ABM Particles: 231 ng ng-P-15/g-ABM
[2]; Isotonic Solution (0.9% saline)
  P-15 Concentration Bound to ABM Particles: 283 ng ng-P-15/g-ABM
[3]; Table 4, Air drying at both drying steps, no freezing
  P-15 ng/g ABM: 74 ng/g ABM
[3]; Table 4, Rapid freeze in freeze-dryer at pretreatment and post-coating steps
  P-15 ng/g ABM: 1521 ng/g ABM
[3]; Table 4, Slow freeze in freeze-dryer at pretreatment and post-coating steps
  P-15 ng/g ABM: 366 ng/g ABM
[3]; Table 5, Intermediate freeze in vacuum oven
  P-15 ng/g ABM: 308 ng/g ABM
[3]; Table 5, Rapid freeze in freeze-dryer
  P-15 ng/g ABM: 4201 ng/g ABM
[3]; Table 6, Pretreatment Step FD-EC, P-15 Coating Step FD-EC
  P-15 ng/g ABM: 351 ng/g ABM
[3]; Table 6, Pretreatment Step FD-EC, P-15 Coating Step Vacuum oven
  P-15 ng/g ABM: 261 ng/g ABM
[3]; Table 6, Pretreatment Step Vacuum oven, P-15 Coating Step FD-EC
  P-15 ng/g ABM: 77 ng/g ABM
[3]; Table 6, Pretreatment Step Vacuum oven, P-15 Coating Step Vacuum oven
  P-15 ng/g ABM: 72 ng/g ABM
[3]; Table 7, Blast-freeze followed by standard freeze-dryer
  P-15 ng/g ABM: 260 ng/g ABM
[3]; Table 7, Intermediate freeze in vacuum oven
  P-15 ng/g ABM: 80 ng/g ABM
